± gives the uncertainty stated by the source.
B1: Max-interacting protein 1, residues 70 to 120; numbered along this chain, P50539 (parent)
chain: STHNELEKNRRAHLRLCLERLKVLIPLGPDCTRHTTLGLLNKAKAHIKKLE

Variants of: B1
Experiment: abundance fitness (aPCA) (normalised: wild type 0, dead -1); higher = more abundant; growth selection in yeast, the domain comes from the species named
Details: Homo sapiens

L40P and L40N are within error of each other in abundance fitness: -0.89 ± 0.21 for the first, -0.584 ± 0.3 for the second.

E7V and E7L are within error of each other in abundance fitness: -0.185 ± 0.092 for the first, -0.109 ± 0.091 for the second.

Going from E7W to L21R, the abundance fitness falls from -0.004 ± 0.11 to -1.05 ± 0.1.

L21N and L21E are within error of each other in abundance fitness: -1.17 ± 0.3 for the first, -0.931 ± 0.18 for the second.

E19H and E19K are within error of each other in abundance fitness: -0.236 ± 0.17 for the first, -0.467 ± 0.2 for the second.

Compared with E19M, E19Q is higher in abundance fitness: -0.678 ± 0.14 for the first, -0.185 ± 0.14 for the second.

First: L37A
Second: L37R
The abundance fitness of the first is lower: -0.026 ± 0.093 for the first, 0.253 ± 0.089 for the second.

Going from L37N to L37F, the abundance fitness rises from -0.292 ± 0.21 to 0.105 ± 0.15.

P29F and P29W are within error of each other in abundance fitness: 0.413 ± 0.14 for the first, 0.519 ± 0.11 for the second.

First: P29V
Second: P29D
The abundance fitness of the first is higher: 0.401 ± 0.095 for the first, -0.387 ± 0.17 for the second.

Compared with P29L, P29Q is lower in abundance fitness: 0.533 ± 0.085 for the first, 0.028 ± 0.13 for the second.

First: G38A
Second: G38Y
The abundance fitness of the first is higher: -0.055 ± 0.085 for the first, -0.546 ± 0.18 for the second.

K22P and K22D are within error of each other in abundance fitness: -0.757 ± 0.15 for the first, -0.83 ± 0.31 for the second.

K22M and K22E are within error of each other in abundance fitness: -0.753 ± 0.13 for the first, -0.885 ± 0.15 for the second.

K22G and K22H are within error of each other in abundance fitness: -0.611 ± 0.11 for the first, -0.651 ± 0.24 for the second.

E5R and E5P are within error of each other in abundance fitness: -0.27 ± 0.097 for the first, -0.15 ± 0.11 for the second.

E5W and E5I are within error of each other in abundance fitness: -0.435 ± 0.14 for the first, -0.185 ± 0.17 for the second.

A43Q and A43K are within error of each other in abundance fitness: -0.74 ± 0.2 for the first, -0.939 ± 0.22 for the second.

A43P and A43E are within error of each other in abundance fitness: -0.53 ± 0.13 for the first, -0.58 ± 0.13 for the second.

A43N and N41E are within error of each other in abundance fitness: -0.553 ± 0.17 for the first, -0.139 ± 0.27 for the second.

N41M and N41P are within error of each other in abundance fitness: -0.559 ± 0.27 for the first, -0.44 ± 0.18 for the second.

Compared with N41K, K42S is lower in abundance fitness: 0.109 ± 0.33 for the first, -0.338 ± 0.094 for the second.

K42T and K42Q are within error of each other in abundance fitness: -0.196 ± 0.12 for the first, -0.44 ± 0.13 for the second.

L14M and L14D are within error of each other in abundance fitness: -0.208 ± 0.11 for the first, -0.274 ± 0.18 for the second.

Going from L14R to L14F, the abundance fitness rises from -0.447 ± 0.086 to 0.096 ± 0.15.

First: L14T
Second: G28R
The abundance fitness of the first is lower: -0.368 ± 0.14 for the first, 0.122 ± 0.083 for the second.

Going from G28I to G28F, the abundance fitness falls from 0.402 ± 0.12 to 0.069 ± 0.19.

G28L and G28C are within error of each other in abundance fitness: -0.142 ± 0.096 for the first, -0.155 ± 0.12 for the second.

G28P and N4G are within error of each other in abundance fitness: -0.015 ± 0.13 for the first, -0.223 ± 0.1 for the second.

N4L and N4V are within error of each other in abundance fitness: -0.48 ± 0.092 for the first, -0.404 ± 0.1 for the second.

Going from A45W to A45H, the abundance fitness rises from -0.483 ± 0.11 to -0.168 ± 0.18.

Going from S1A to S1F, the abundance fitness rises from -0.6 ± 0.17 to -0.095 ± 0.18.

S1T and S1H are within error of each other in abundance fitness: -0.577 ± 0.34 for the first, -0.285 ± 0.31 for the second.

First: S1G
Second: K49V
The abundance fitness of the first is higher: -0.21 ± 0.16 for the first, -0.618 ± 0.11 for the second.

K49C and K49G are within error of each other in abundance fitness: -0.62 ± 0.14 for the first, -0.458 ± 0.091 for the second.

K48Q and K48E are within error of each other in abundance fitness: -0.457 ± 0.22 for the first, -0.762 ± 0.12 for the second.

K48S and K48M are within error of each other in abundance fitness: -0.648 ± 0.14 for the first, -0.65 ± 0.18 for the second.

Compared with C17A, C17Q is lower in abundance fitness: -0.193 ± 0.11 for the first, -0.635 ± 0.16 for the second.

I25Y and I25E are within error of each other in abundance fitness: -0.309 ± 0.16 for the first, -0.384 ± 0.19 for the second.

First: I25M
Second: I25R
The abundance fitness of the first is higher: -0.228 ± 0.13 for the first, -0.521 ± 0.098 for the second.

First: I25N
Second: I25A
The abundance fitness of the first is higher: 0.169 ± 0.13 for the first, -0.584 ± 0.11 for the second.

Going from I25G to H3W, the abundance fitness falls from -0.26 ± 0.11 to -0.549 ± 0.14.

H3M and H3E are within error of each other in abundance fitness: 0.152 ± 0.12 for the first, -0.047 ± 0.11 for the second.

H3F and D30W are within error of each other in abundance fitness: 0.168 ± 0.2 for the first, 0.034 ± 0.11 for the second.

D30N and D30T are within error of each other in abundance fitness: 0.229 ± 0.085 for the first, 0.128 ± 0.077 for the second.

D30F and D30G are within error of each other in abundance fitness: 0.036 ± 0.077 for the first, 0.178 ± 0.087 for the second.

Compared with D30C, D30K is higher in abundance fitness: -0.07 ± 0.084 for the first, 0.213 ± 0.11 for the second.

Going from L18F to L18C, the abundance fitness falls from -0.001 ± 0.15 to -0.61 ± 0.13.

R15V and R15H are within error of each other in abundance fitness: -0.678 ± 0.11 for the first, -0.462 ± 0.23 for the second.

R15A and R15M are within error of each other in abundance fitness: -0.211 ± 0.11 for the first, -0.462 ± 0.17 for the second.

First: R10D
Second: V23H
The abundance fitness of the first is lower: -0.545 ± 0.13 for the first, 0.455 ± 0.13 for the second.

V23N and V23S are within error of each other in abundance fitness: 0.313 ± 0.2 for the first, 0.317 ± 0.093 for the second.

V23L and V23M are within error of each other in abundance fitness: 0.128 ± 0.092 for the first, 0.064 ± 0.11 for the second.

Compared with V23I, H34W is higher in abundance fitness: -0.218 ± 0.12 for the first, 0.017 ± 0.091 for the second.

Compared with L50M, L39D is lower in abundance fitness: -0.446 ± 0.17 for the first, -1.11 ± 0.23 for the second.

First: L39W
Second: H46R
The abundance fitness of the first is higher: 0.127 ± 0.096 for the first, -0.055 ± 0.079 for the second.

R33N and R33P are within error of each other in abundance fitness: -0.372 ± 0.15 for the first, -0.225 ± 0.13 for the second.

First: R33W
Second: R33T
The abundance fitness of the first is higher: -0.075 ± 0.1 for the first, -0.576 ± 0.12 for the second.

Going from I47F to T32P, the abundance fitness falls from 0.216 ± 0.21 to -0.303 ± 0.15.

T32H and T32N are within error of each other in abundance fitness: -0.168 ± 0.12 for the first, -0.389 ± 0.17 for the second.

Compared with T32I, E51R is higher in abundance fitness: 0.139 ± 0.12 for the first, 0.452 ± 0.15 for the second.

E51Y and E51P are within error of each other in abundance fitness: 0.374 ± 0.21 for the first, -0.089 ± 0.34 for the second.

C31T and C31D are within error of each other in abundance fitness: -0.034 ± 0.12 for the first, -0.136 ± 0.14 for the second.

C31P and C31G are within error of each other in abundance fitness: 0.053 ± 0.13 for the first, 0.027 ± 0.072 for the second.

Compared with C31M, T2F is lower in abundance fitness: -0.087 ± 0.12 for the first, -0.586 ± 0.097 for the second.

First: T2I
Second: T2L
The abundance fitness of the first is higher: -0.24 ± 0.079 for the first, -0.519 ± 0.075 for the second.

T2S and L27Y are within error of each other in abundance fitness: -0.414 ± 0.074 for the first, -0.39 ± 0.15 for the second.

A12I and A12L are within error of each other in abundance fitness: -0.847 ± 0.2 for the first, -0.651 ± 0.1 for the second.

A12Y and A12H are within error of each other in abundance fitness: -0.932 ± 0.23 for the first, -0.666 ± 0.17 for the second.

T36S and T36L are within error of each other in abundance fitness: -0.132 ± 0.094 for the first, -0.106 ± 0.1 for the second.

Compared with T36V, L24E is lower in abundance fitness: 0.308 ± 0.084 for the first, -0.751 ± 0.15 for the second.

L24G and L24F are within error of each other in abundance fitness: -0.461 ± 0.093 for the first, -0.277 ± 0.15 for the second.

Compared with L24S, T35Y is higher in abundance fitness: -0.391 ± 0.11 for the first, 0.279 ± 0.15 for the second.

T35V and T35W are within error of each other in abundance fitness: 0.057 ± 0.086 for the first, 0.189 ± 0.097 for the second.

K8T and K8V are within error of each other in abundance fitness: -0.377 ± 0.12 for the first, -0.338 ± 0.095 for the second.

K8Y and L6E are within error of each other in abundance fitness: -0.619 ± 0.18 for the first, -0.574 ± 0.14 for the second.

Going from L6S to R11M, the abundance fitness falls from 0.096 ± 0.1 to -0.261 ± 0.13.

R11I and L16M are within error of each other in abundance fitness: -0.252 ± 0.26 for the first, -0.001 ± 0.16 for the second.

L16Q and L16S are within error of each other in abundance fitness: 0.16 ± 0.14 for the first, 0.218 ± 0.1 for the second.

H13C and H13T are within error of each other in abundance fitness: -0.509 ± 0.17 for the first, -0.353 ± 0.15 for the second.

P26M and P26Q are within error of each other in abundance fitness: 0.074 ± 0.11 for the first, 0.144 ± 0.12 for the second.

First: P26L
Second: P26V
The abundance fitness of the first is higher: -0.326 ± 0.095 for the first, -0.628 ± 0.098 for the second.

P26F and P26D are within error of each other in abundance fitness: -0.557 ± 0.2 for the first, -0.327 ± 0.14 for the second.

R20P showed an abundance fitness of -0.753 ± 0.17.

Reference: the Human Domainome abundance scans (Beltran et al. 2025)
